Patent US20110262445A1 (CEPHALON AUSTRALIA, published 2011)
Positions count from the first letter of the chain named.

T1: human IL-23 (human, UniProt P29460 23-328; Q9NPF7 20-189)
T1 construct: Recombinant (Ebioscience); HIS-tagged in flow cytometry, biotinylated in some assays; also called hIL-23; rhIL-23
T1 sequence 1: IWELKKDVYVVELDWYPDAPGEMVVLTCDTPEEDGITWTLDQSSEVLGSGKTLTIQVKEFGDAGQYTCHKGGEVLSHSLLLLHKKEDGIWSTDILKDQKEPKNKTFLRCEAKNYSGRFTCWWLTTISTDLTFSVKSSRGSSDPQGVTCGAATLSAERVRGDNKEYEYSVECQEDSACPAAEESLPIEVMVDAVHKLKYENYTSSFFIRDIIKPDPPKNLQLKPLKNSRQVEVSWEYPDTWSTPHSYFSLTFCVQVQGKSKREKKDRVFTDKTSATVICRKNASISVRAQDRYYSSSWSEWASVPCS
T1 sequence 2: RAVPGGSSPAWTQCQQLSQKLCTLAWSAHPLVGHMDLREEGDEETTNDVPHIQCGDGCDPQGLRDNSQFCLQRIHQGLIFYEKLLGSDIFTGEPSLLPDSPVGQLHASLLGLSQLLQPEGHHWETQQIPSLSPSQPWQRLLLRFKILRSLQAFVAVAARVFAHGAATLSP

T2: human IL-12 (human, UniProt P29460 23-328; P29459 23-219)
T2 construct: Recombinant (Peprotech); FLAG-tagged IL-12 in the flow cytometry assays, biotinylated in the IL-12Rβ2 assay; also called hIL-12
T2 sequence 1: T1 sequence 1
T2 sequence 2: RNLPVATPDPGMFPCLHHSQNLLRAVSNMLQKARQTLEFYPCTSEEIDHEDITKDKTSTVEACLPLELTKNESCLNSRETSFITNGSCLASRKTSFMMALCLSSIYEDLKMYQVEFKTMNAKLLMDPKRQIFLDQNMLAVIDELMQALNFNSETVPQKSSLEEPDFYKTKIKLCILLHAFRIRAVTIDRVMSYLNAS

B1: Antibody 205 (antibody, human IgG1, kappa, V domains shown)
VH: QVQLVQSGAEVKKPGASVKVSCKASGYTFTDYYLHWVRQAPGRGLEWMGWIDPENGDTEYAPKFQGRVTMTTDTSTSTAYMELRSLRSDDTAVYYCAANKELRYFDVWGQGTMVTVSS
VL: EIVMTQSPATLSVSPGERATLSCRASQSISINLHWYQQKPGQAPRLLIYFASQSISGIPARFSGSGSGTEFTLTISSLQSEDFAVYYCQQSNSFPLTFGGGTKVEIKR
B2: Antibody 195 (antibody, human IgG1, kappa, V domains shown)
VH: B1 VH with R43Q, Y60H
VL: DIQMTQSPSSVSASVGDRVTITCRASQSISINLHWYQQKPGKAPKLLIYFASQSISGVPSRFSGSGSGTDFSLTINSLQTEDFATYYCQQSNSFPLTFGGGTKVEIKR
B3: Antibody 192 (antibody, human IgG1, kappa, V domains shown)
VH: B1 VH with F29L, R43Q
VL: B2 VL
B4: Antibody 190 (antibody, human IgG1, kappa, V domains shown)
VH: B1 VH with R43Q, A97N
VL: B2 VL
B5: Antibody 194 (antibody, human IgG1, kappa, V domains shown)
VH: B1 VH with F29L, R43Q, Y60S
VL: B2 VL
B6: Antibody 198 (antibody, human IgG1, kappa, V domains shown)
VH: B1 VH with T28A, R43Q
VL: B2 VL
B7: Antibody 182 (antibody, human IgG1, kappa, V domains shown)
VH: EVQLVQSGAEVKKPGATVKISCKASGYTLSDYYLHWVRQAPEKGLEWMGWIDPENGDTEHAPKFQGRVTITADTSTDTGYLELSSLRSEDTAVYYCAANKELRYFDVWGQGTLVTVSS
VL: B2 VL
B8: Antibody 181 (antibody, human IgG1, kappa, V domains shown)
VH: B7 VH with L29F
VL: B2 VL
B9: Antibody 180 (antibody, human IgG1, kappa, V domains shown)
VH: B7 VH with H60S
VL: B2 VL
B10: Antibody 177 (antibody, human IgG1, kappa, V domains shown)
VH: B7 VH with L29F, H60S
VL: B2 VL
B11: Antibody 193 (antibody, human IgG1, kappa, V domains shown)
VH: B1 VH with R43Q, Y60S
VL: B2 VL
B12: Antibody 93 (antibody, human IgG1, kappa, V domains shown)
VH: B7 VH with L29F, H60Y, A97N
VL: B2 VL with T80P, T85R
B13: Antibody 98 (antibody, human IgG1, kappa)
heavy chain: not shown
light chain: DIQMTQSPSSVSASVGDRVTITCRASQSISINLHWYQQKPGKAPKLLIYFASQSISGVPSRFSGSGSGTDFSLTINSLQPEDFARYYCQQSNSFPLTFGGGTKVEIKRTVAAPSVFIFPPSDEQLKSGTASVVCLLNNFYPREAKVQWKVDNALQSGNSQESVTEQDSKDSTYSLSSTLTLSKADYEKHKVYACEVTHQGLSSPVTKSFNRGEC
B14: Antibody 101 (antibody, human IgG1, kappa)
heavy chain: not shown
light chain: B13 light chain
B15: Antibody 103 (antibody, human IgG1, kappa)
heavy chain: not shown
light chain: B13 light chain
B16: Antibody 107 (antibody, human IgG1, kappa, V domains shown)
VH: B7 VH with T28N, L29F, H60Y
VL: B2 VL with T80P, T85R
B17: Antibody 105 (antibody, human IgG1, kappa, V domains shown)
VH: B7 VH with K23T, L29F, H60Y
VL: B2 VL with T80P, T85R
B18: Antibody 99 (antibody, human IgG1, kappa)
heavy chain: not shown
light chain: B13 light chain
B19: Antibody 102 (antibody, human IgG1, kappa)
heavy chain: not shown
light chain: B13 light chain
B20: Antibody 106 (antibody, human IgG1, kappa, V domains shown)
VH: B7 VH with Y27F, L29F, H60Y
VL: B2 VL with T80P, T85R
B21: Antibody 97 (antibody, human IgG1, kappa)
heavy chain: not shown
light chain: B13 light chain
B22: Antibody 104 (antibody, human IgG1, kappa)
heavy chain: not shown
light chain: B13 light chain
B23: Antibody 94 (antibody, human IgG1, kappa, V domains shown)
VH: B7 VH with L29F, H60Y, A97N, A98R
VL: B2 VL with T80P, T85R
B24: Antibody 100 (antibody, human IgG1, kappa)
heavy chain: not shown
light chain: B13 light chain

target: T1, human IL-23; test: SPR, IgG on Protein A
Protocol: (§1) Using SPR technology the kₐ and kd and the KD of various humanized antibodies was determined.
(§2) Using a SPR 3000, Protein A was immobilized onto FC1 and FC2 (or alternatively FC3 and FC4) of a CM5 research grade sensor chip using amine coupling, giving approximately […] RU. FC1 was used a blank throughout the experiments. The experiments were run in HBS-P buffer (SPR). At a flow rate of 20 μl/min, 20 μl of 5 μg/mL of antibody was passed over FC2. IL-12, IL-23 or IL-12p40 (Peprotech) were passed over the surface of FC1 and FC2 at concentrations ranging from 66 nM to 2 nM. Regeneration of the surface was performed using 10 mM Glycine, pH 1.0. The sensorgram data from FC2 was subtracted from FC1 and a buffer only control. The curves were fitted using a 1:1 Langmuir equation to generate the kd, ka and KD values. All curves were fitted with a χ² of less then 2.0 where possible.

Kd [pM]	koff [s⁻¹]	kon [M⁻¹ s⁻¹]	Binder
86.2	0.000415	4.81e+06	B1
50	0.000202	4.03e+06	B2
79.4	0.000211	2.66e+06	B3
142	0.000609	4.28e+06	B4
41	0.000122	2.99e+06	B5
87.7	0.000409	4.65e+06	B6
24.6	0.000129	5.27e+06	B7
42.4	0.000173	4.09e+06	B8
29.7	9.27e-05	3.12e+06	B9
37.3	0.000128	3.43e+06	B10

target: T2, human IL-12; test: SPR, IgG on Protein A
Protocol: as §1, §2

Kd [pM]	koff [s⁻¹]	kon [M⁻¹ s⁻¹]	Binder
157	0.000581	3.7e+06	B1
103	0.000274	2.65e+06	B2
79.4	0.000206	2.6e+06	B11
85.5	0.000356	4.16e+06	B3
217	0.00084	3.86e+06	B4
92.7	0.000194	2.09e+06	B5
158	0.000594	3.75e+06	B6
34.4	0.000214	6.23e+06	B7
68.1	0.000244	3.57e+06	B8
32.5	0.000173	5.31e+06	B9
46	0.000212	4.61e+06	B10

target: T2, human IL-12; test: ELISA, coated IL-12
Procedure, shortened: (§3)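 Cytokine at 1 μg/mL in carbonate buffer pH 9.6 was coated overnight at 4° C onto Maxisorp plates and blocked with 1% BSA in PBS for 1 hour at 25° C. Antibody titrations were bound for 1 hour at 25° C, then detected with goat anti-human IgG or anti-murine immunoglobulin HRP (1:2000, 1 hour). TMB was developed and stopped with 1M HCl. The binding result is absorbance at 450 nm (reference 620 nm).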

binding result	Binder
binds	B12
binds	B13
binds	B14
binds	B15
binds	B16
binds	B17
binds	B18
binds	B19
binds	B20
binds	B21
binds	B22
no binding (tested: not given)	B23
binds	B24

target: T1, human IL-23; test: ELISA, coated IL-23
Procedure, shortened: as §3

binding result	Binder
binds	B12
binds	B13
binds	B14
binds	B15
binds	B16
binds	B17
binds	B18
binds	B19
binds	B20
binds	B21
binds	B22
binds	B23
binds	B24
